Source: US20050196797A1 (JAPAN SCIENCE AND TECHNOLOGY AGENCY, published 2005)

Biological target: human SMG-1 (hSMG-1) (human, UniProt Q96Q15 1-3661, limits assumed)
Assay: cell-based or functional assay

human SMG-1 (hSMG-1), sequence (Q96Q15 whole entry): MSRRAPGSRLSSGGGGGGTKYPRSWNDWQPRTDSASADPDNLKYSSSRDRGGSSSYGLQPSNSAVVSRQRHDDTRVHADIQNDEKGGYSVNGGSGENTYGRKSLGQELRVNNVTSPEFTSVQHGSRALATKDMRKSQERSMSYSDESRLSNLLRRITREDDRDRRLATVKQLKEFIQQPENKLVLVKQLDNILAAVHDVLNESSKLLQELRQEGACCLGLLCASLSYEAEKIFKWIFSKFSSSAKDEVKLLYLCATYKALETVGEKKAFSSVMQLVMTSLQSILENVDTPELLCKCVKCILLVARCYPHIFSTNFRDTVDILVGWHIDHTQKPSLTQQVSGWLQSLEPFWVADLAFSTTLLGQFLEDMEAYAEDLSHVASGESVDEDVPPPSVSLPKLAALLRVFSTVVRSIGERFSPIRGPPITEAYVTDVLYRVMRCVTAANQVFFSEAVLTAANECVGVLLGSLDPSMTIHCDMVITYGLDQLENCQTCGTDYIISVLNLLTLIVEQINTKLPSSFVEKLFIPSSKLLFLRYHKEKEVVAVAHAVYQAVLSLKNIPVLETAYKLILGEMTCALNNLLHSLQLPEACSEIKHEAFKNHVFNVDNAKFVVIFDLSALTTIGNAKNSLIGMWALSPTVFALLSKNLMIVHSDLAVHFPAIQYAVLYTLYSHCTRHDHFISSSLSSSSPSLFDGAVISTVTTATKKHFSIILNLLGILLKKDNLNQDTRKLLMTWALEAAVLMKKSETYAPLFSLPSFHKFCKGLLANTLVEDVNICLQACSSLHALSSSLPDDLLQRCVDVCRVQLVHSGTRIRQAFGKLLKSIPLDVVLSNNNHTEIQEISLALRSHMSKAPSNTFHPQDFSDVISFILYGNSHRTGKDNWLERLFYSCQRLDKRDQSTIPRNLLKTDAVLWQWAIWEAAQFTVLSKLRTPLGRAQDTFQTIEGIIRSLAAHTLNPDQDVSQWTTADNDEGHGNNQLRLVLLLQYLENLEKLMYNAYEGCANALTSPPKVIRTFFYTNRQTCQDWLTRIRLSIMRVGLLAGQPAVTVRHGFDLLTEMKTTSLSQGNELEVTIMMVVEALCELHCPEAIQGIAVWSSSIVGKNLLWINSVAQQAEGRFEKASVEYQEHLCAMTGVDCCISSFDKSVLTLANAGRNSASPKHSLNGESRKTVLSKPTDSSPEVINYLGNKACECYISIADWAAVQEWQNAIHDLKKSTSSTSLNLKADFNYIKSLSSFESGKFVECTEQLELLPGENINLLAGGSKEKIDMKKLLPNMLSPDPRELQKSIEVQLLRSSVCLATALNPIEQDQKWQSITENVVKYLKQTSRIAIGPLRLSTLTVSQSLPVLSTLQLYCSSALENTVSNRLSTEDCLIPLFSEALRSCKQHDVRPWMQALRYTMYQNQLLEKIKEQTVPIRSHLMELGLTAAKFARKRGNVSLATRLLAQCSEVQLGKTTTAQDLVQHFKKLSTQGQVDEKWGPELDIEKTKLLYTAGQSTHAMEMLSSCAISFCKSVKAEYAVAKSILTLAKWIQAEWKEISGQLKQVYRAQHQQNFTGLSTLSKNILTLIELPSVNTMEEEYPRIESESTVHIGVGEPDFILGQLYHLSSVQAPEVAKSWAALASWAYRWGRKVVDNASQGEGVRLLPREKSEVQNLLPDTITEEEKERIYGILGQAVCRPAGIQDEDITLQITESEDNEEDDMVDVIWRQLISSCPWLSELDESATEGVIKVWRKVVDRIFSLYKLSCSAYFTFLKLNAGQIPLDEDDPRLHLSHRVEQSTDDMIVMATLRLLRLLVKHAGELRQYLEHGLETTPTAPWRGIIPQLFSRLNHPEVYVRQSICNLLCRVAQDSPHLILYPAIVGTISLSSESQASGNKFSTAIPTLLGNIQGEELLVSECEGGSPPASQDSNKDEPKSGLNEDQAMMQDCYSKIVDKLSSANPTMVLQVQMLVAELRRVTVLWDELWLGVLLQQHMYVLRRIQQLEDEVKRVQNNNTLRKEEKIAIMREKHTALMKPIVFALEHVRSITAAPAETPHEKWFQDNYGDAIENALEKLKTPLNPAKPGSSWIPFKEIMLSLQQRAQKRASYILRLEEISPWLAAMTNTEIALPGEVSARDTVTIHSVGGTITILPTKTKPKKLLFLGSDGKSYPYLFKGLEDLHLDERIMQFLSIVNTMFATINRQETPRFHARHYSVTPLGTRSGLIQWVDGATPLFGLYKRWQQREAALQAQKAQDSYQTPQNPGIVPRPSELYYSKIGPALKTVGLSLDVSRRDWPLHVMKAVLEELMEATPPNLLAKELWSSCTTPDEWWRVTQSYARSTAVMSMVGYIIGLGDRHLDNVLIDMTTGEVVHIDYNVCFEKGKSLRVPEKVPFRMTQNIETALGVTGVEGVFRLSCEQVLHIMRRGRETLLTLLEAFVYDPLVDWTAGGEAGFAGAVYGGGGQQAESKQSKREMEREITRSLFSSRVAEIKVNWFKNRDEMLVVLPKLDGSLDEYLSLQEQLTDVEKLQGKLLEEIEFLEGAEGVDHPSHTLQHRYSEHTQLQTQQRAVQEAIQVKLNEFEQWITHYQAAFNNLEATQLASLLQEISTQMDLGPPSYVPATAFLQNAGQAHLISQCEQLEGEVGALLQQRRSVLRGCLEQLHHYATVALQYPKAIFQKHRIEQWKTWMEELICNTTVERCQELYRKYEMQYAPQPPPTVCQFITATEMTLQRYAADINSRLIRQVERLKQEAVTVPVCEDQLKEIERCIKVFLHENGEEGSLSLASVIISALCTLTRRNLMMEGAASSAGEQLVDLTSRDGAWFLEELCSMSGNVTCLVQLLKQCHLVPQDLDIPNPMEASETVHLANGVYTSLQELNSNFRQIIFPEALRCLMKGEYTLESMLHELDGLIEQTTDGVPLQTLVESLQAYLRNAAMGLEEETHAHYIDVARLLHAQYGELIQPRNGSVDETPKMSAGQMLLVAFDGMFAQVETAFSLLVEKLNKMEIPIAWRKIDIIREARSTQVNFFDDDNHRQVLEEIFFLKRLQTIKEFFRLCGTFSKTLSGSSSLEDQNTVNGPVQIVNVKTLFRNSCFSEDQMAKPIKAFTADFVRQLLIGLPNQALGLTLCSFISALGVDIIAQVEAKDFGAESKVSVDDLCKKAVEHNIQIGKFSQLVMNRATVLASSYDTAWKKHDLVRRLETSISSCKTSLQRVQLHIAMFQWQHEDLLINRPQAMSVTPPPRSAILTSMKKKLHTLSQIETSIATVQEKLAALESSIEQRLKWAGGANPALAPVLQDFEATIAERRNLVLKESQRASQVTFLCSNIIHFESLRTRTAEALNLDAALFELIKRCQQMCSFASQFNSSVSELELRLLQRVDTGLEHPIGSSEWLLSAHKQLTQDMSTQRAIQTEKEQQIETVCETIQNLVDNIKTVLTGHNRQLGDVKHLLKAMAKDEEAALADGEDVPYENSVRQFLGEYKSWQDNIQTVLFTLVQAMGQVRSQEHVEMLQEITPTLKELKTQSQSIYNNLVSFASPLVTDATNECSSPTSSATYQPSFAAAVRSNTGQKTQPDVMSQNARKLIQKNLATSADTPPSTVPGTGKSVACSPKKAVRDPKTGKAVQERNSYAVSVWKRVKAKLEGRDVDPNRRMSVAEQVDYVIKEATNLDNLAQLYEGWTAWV

B1: SMGBP1 (SMG Binding Protein 1) (other)
chain: MAGPVSLRDLLMGASAWMGSESPGGSPTEGGGSAAGGPEPPWREDEICVVGIFGKTALRLNSEKFSLVNTVCDRQVFPLFRHQDPGDPGPGIRTEAGAVGEAGGAEDPGAAAGGSVRGSGAVAEGNRTEAGSQDYSLLQAYYSQESKVLYLLLTSICDNSQLLRACRALQSGEAGGGLSLPHAEAHEFWKHQEKLQCLSLLYLFSVCHILLLVHPTCSFDITYDRVFRALDGLRQKVLPLLKTAIKDCPVGKDWKLNCRPCPPRLLFLFQLNGALKVVPPRNQDPAHPDKPKKHSPKRRLQHALEDQIYRIFRKSRVLTNQSINCLFTVPANQAFVYIVPGSQEEDPVGMLLDQLRSHCTVKDPESLLVPAPLSGPRRYQVMRQHSRQQLSFHIDSSSSSSSGQLVDFTLWEFLWQHVELVLSKKGFDDSVGRNPQPSHFELPTYQKWISAASKLYEVAIDGKEEDLGSPTGELTSKILSSIKVLEGFLDIDTKFSENRCQKALPMAHSAYQSNLPHNYTMTVHKNQLAQALRVYSQHARGPAFHKYAMQLHEDCYKFWSNGHQLCEERSLTDQHCVHKFHSLPKSGEKPEADRNPPVLYHNSRARSTGACNCGRKQAPRDDPFDIKAANYDFYQLLEEKCCGKLDHINFPVFEPSTPDPAPAKNESSPAPPDSDADKLKEKEPQTQGESTSLSLALSLGQSTDSLGTYPADPQAGGDNPEVHGQVEVKTEKRPNFVDRQASTVEYLPGMLHSNCPKGLLPKFSSWSLVKLGPAKSYNFHTGLDQQGFIPGTNYLMPWDIVIRTRAEDEGDLDTNSWPAPNKAIPGKRSAVVMGRGRRRDDIARAFVGFEYEDSRGRRFMCSGPDKVMKVMGSGPKESALKALNSDMPLYILSSSQGRGLKPHYAQLMRLFVVVPDAPLQIILMPQVQPGPPPCPVFYPEKQEITLPPDGLWVLRFPYAYVTERGPCFPPKENVQLMSYKVLRGVLKAVTQ
phosphorylation of hUPF1 (P-hUPF1/hUPF1) in HeLa TetOff cells transfected with siRNA against p130, relative to control siRNA: ~40%
